Measured values as given in patent US20250353901A1 (ON TARGET MOLECULES BIOTECH, published 2025).

Target: T1, synthetic peptide HRCLQQLCCRKKPG
T1 construct: Variant of P2X7 residues 491-504, used as the counter-screen peptide; also called the wild type SNP at position 496 which is Q
T1 peptide: HRCLQQLCCRKKPG
Test: in-vitro cross-reaction of hybridoma monoclonal antibodies against the synthetic peptide
Description: For the generation of monoclonal antibodies, hybridoma cell lines expressing the desired antibody were produced. Techniques for the production of monoclonal antibodies are well known in the art. Animals were presented with the carboxyl-terminal antigen sequence […] conjugated to KHL. Murine hybridoma cells were produced and screened according to standard protocols. Monoclonal antibodies harvested after clonal selection of the hybridomas expressed from the variable regions of the monoclonal antibodies raised against the antigen, were tested for their capacity to bind this antigen.

B1: Clone 3: 6H5.C10 Isotype Ig1 k (antibody, V domains shown)
VH: QVTLKESGPGILQPSQTLSLTCSFSGFSLSTFGMGVGWIRQPSGKGLEWLAHIWWDDYKYYNPALKSRLTISKDTSKNQVFLKIANVDTADTATYYCARISYYGSSYLDYWGQGTTLTVSS
VL: DVVMTQTPLSLPVSLGDQASISCRSSQSLVHSNGNTYLHWYLQKPGQSPKLLIYKVSNRFSGVPDRFSGSGSGTDFTLKISRVEAEDLGVYFCSQTTHVPYTFGGGTKLEIKR
notes: Murine hybridoma monoclonal antibody, isotype printed as 'Ig1 k'
Does B1 bind?
Result: no binding
